How the values were obtained:
[1] = biological target: T1, CA-14 bound to cannabidiol (CA-14-CBD complex) (non-covalently bound cannabidiol (CBD); AviTag biotinylated by BirA where immobilised (ELISA)); assay: BLI; biotinylated DB-18 on streptavidin biosensors, analyte CA-14 pre-equilibrated with CBD; value printed in the scheme of ternary complex formation
T1 construct: Same polypeptide as m1, pre-equilibrated with the small molecule cannabidiol; also called CBD-CA-14 complex; not shown: C-terminal AviTag and His tag
Description: With the purified DB nanobodies in hand, we first sought to determine their binding affinities to the CA-14-CBD. CBD might directly bind to selected dimerization binders, which can affect the affinity measurement. To rule out this possibility, the four nanobodies were biotinylated (FIG. 7c) and immobilized on streptavidin biosensors, and the interaction with CBD was detected by BL1. Only minimal binding between CBD and the dimerization binders was detected (data not shown). Moreover, the binding-dissociation dynamics of the CA-14-CBD complex can also affect the measurement of dimerization binder affinities. To address this, the affinity was measured by a BLI assay in which the biosensor-immobilized dimerization binders were interacted with CA-14 pre-equilibrated with varied concentrations of CBD (FIG. 9a). The concentrations of the CA-14-CBD complex in equilibrium were calculated based on input CA-14 and CBD concentrations. The CA-14-CBD complex concentration was approximated to be constant because only a minimal fraction of the complex bound to the biosensor tips during the BLI assay. […]
The nanobody binding kinetics was analyzed using an Octet™ RED96 system (ForteBio) and Streptavidin (SA) or Super Streptavidin (SSA) biosensors. […] Dissociation constants (KDS) of anchor binder-ligand interactions were calculated based on a steady-state analysis using Octet™ RED96 data analysis software.

[2] = biological target: T1, CA-14 bound to cannabidiol (CA-14-CBD …); assay: BLI (Octet RED96), biotinylated DB on streptavidin sensor, 1 uM CA-14 pre-equilibrated with CBD
Description: With the purified DB nanobodies in hand, we first sought to determine their binding affinities to the CA-14-CBD. CBD might directly bind to selected dimerization binders, which can affect the affinity measurement. To rule out this possibility, the four nanobodies were biotinylated (FIG. 7c) and immobilized on streptavidin biosensors, and the interaction with CBD was detected by BL1. Only minimal binding between CBD and the dimerization binders was detected (data not shown). Moreover, the binding-dissociation dynamics of the CA-14-CBD complex can also affect the measurement of dimerization binder affinities. To address this, the affinity was measured by a BLI assay in which the biosensor-immobilized dimerization binders were interacted with CA-14 pre-equilibrated with varied concentrations of CBD (FIG. 9a). The concentrations of the CA-14-CBD complex in equilibrium were calculated based on input CA-14 and CBD concentrations. The CA-14-CBD complex concentration was approximated to be constant because only a minimal fraction of the complex bound to the biosensor tips during the BLI assay. It was confirmed that CA-14 only interacts with the dimerization binders in the presence of CBD (FIG. 3a).
The nanobody binding kinetics was analyzed using an Octet™ RED96 system (ForteBio) and Streptavidin (SA) or Super Streptavidin (SSA) biosensors. For the anchor-binder analysis, 200 nM biotinylated anchor binders were immobilized on SSA biosensors with a binding assay buffer (1×PBS, pH 7.4, 0.05% Tween 20, 0.2% BSA, 3% methanol; Note: because CBD and THC were dissolved in methanol to make stock solutions, 3% methanol was added to the buffer to fairly compare samples and controls). Serial dilutions of CBD and THC were used for the anchor binder assays. Dissociation constants (KDS) of anchor binder-ligand interactions were calculated based on a steady-state analysis using Octet™ RED96 data analysis software.

Row | Binder | Kd [1] [nM] | Kd [2] [nM] | koff [2] [s⁻¹] | kon [2] [M⁻¹ s⁻¹]
1 | dimerization binder DB-18 (VHH, AviTag biotinylated by BirA (BLI), Purified and tagged in BLI (biotinylated) and SEC; also called 1DB-18; not shown: C-terminal AviTag and His tag (purified form)) VHH: EVQLQASGGGFVQPGGSLRLSCAASGGYSRADDMGWFRQAPGKEREFVSAISFGETDSFYYADSVKGRFTISRDNSKNTVYLQMNSLRAEDTATYYCAYHNYTNMFEYWGQGTQVTVSS | 553 | 553 | 0.0227 | 41000
2 | dimerization binder DB-11 (VHH, AviTag biotinylated by BirA (BLI), Purified, tagged and biotinylated in BLI; not shown: C-terminal AviTag and His tag (purified form)) VHH: EVQLQASGGGFVQPGGSLRLSCAASGTTSDNDTMGWFRQAPGKEREFVSAISWNGGRDEYYADSVKGRFTISRDNSKNTVYLQMNSLRAEDTATYYCAYQDNRSWQEYWGQGTQVTVSS |  | 1380 | 0.084 | 61000
3 | dimerization binder DB-21 (VHH, AviTag biotinylated by BirA (BLI), Purified and tagged in BLI (biotinylated) and SEC; the form used in the sandwich ELISA-like assay is not clearly stated (same id used for all); not shown: C-terminal AviTag and His tag (purified form)) VHH: EVQLQASGGGFVQPGGSLRLSCAASGTTYGQTNMGWFRQAPGKEREFVSAISGLQGRDLYYADSVKGRFTISRDNSKNTVYLQMNSLRAEDTATYYCAFHDFLRMWEYWGQGTQVTVSS |  | 56.4 | 0.000617 | 11000
4 | dimerization binder DB-6 (VHH, AviTag biotinylated by BirA (BLI), Purified, tagged and biotinylated in BLI; not shown: C-terminal AviTag and His tag (purified form)) VHH: EVQLQASGGGFVQPGGSLRLSCAASGRFSWGEEMGWFRQAPGKEREFVSAISWAATPWQYYADSVKGRFTISRDNSKNTVYLQMNSLRAEDTATYYCADEWHIGHVSYWGQGTQVTVSS |  | 19000 | 0.182 | 9600
